From patent publication US20240059799A1 (Pfizer, published 2024)
Numbering of substitutions follows the chain as printed.

B1: TL1A-0049 (antibody, human IgG1, kappa, V domains shown)
VH: QVQLVQSGAEVKKPGASVKVSCKASGYDFTYYGISWVRQAPGQGLEWMGWISTYNGNTHYARMLQGRVTMTRDTSTSTVYMELSSLRSEDTAVYYCARENYYGSGAYRGGMDVWGQGTTVTVSS
VL: DIQMTQSPSSLSASVGDRVTITCRASQSVSSYLAWYQQKPGKAPKLLIYDASNRATGVPSRFSGSGSGTDFTLTISSLQPEDFATYYCQQRSNWPWTFGQGTKVEIKR
notes: IgG1/kappa; IGHV1-46*01 / IGKV1-39*01 grafts
B2: TL1A-0052 (antibody, human IgG1, kappa, V domains shown)
VH: B1 VH with T76I, V79A, S85R, E89D
VL: B1 VL
notes: IgG1/kappa; IGHV1-2*02 / IGKV1-39*01 grafts
B3: TL1A-0047 (antibody, human IgG1, kappa, V domains shown)
VH: EVQLVESGGGLVQPGGSLRLSCAASGYDFTYYGISWVRQAPGKGLEWVAWISTYNGNTHYARMLQGRFTISRDNAKNSLYLQMNSLRAEDTAVYYCARENYYGSGAYRGGMDVWGQGTTVTVSS
VL: EIVLTQSPATLSLSPGERATLSCRASQSVSSYLAWYQQKPGQAPRLLIYDASNRATGIPARFSGSGSGTDFTLTISSLEPEDFAVYYCQQRSNWPWTFGQGTKVEIKR
notes: IgG1/kappa; VH graft on IGHV3-7*01
B4: TL1A-0055 (antibody, human IgG1, kappa, V domains shown)
VH: B3 VH
VL: B3 VL with L4M, E79Q
notes: IgG1/kappa; IGHV3-7*01 / IGKV3D-7*01 grafts
B5: TL1A-0051 (antibody, human IgG1, kappa, V domains shown)
VH: B3 VH
VL: B1 VL
notes: IgG1/kappa; IGHV3-7*01 / IGKV1-39*01 grafts
B6: p40TL1A-0024 (bispecific antibody, human IgG1, kappa)
heavy 1: EVQLVQSGAEVKKPGESLKISCKGSGYSFTTYWLGWVRQMPGKGLDWIGIMSPVDSDIRYSPSFQGQVTMSVDKSITTAYLQWNSLKASDTAMYYCARRRPGQGYFDFWGQGTLVTVSSASTKGPSVFPLAPSSKSTSGGTAALGCLVKDYFPEPVTVSWNSGALTSGVHTFPAVLQSSGLYSLSSVVTVPSSSLGTQTYICNVNHKPSNTKVDKKVEPKSCDKTHTCPPCPAPEAAGAPSVFLFPPKPKDTLMISRTPEVTCVVVDVSHEDPEVKFNWYVDGVEVHNAKTKPREEQYNSTYRVVSVLTVLHQDWLNGKEYKCKVSNKALPAPIEKTISKAKGQPREPQVYTLPPSREEMTKNQVSLTCLVKGFYPSDIAVEWESNGQPENNYKTTPPVLDSDGSFFLYSRLTVDKSRWQQGNVFSCSVLHEALHSHYTQKSLSLSPGK
light 1: not shown
heavy 2: QVQLVQSGAEVKKPGASVKVSCKASGYDYTYYGISWVRQAPGQGLEWMGWISTYNTGTHYAPSLQGRVTMTTDTSTSTAYMELRSLRSDDTAVYYCARESYYGSGAFRGGMDVWGQGTTVTVSSASTKGPSVFPLAPSSKSTSGGTAALGCLVKDYFPEPVTVSWNSGALTSGVHTFPAVLQSSGLYSLSSVVTVPSSSLGTQTYICNVNHKPSNTKVDKKVEPKSCDKTHTCPPCPAPEAAGAPSVFLFPPKPKDTLMISRTPEVTCVVVDVSHEDPEVKFNWYVDGVEVHNAKTKPREEQYNSTYRVVSVLTVLHQDWLNGKEYKCKVSNKALPAPIEKTISKAKGQPREPQVYTLPPSREEMTKNQVSLTCEVKGFYPSDIAVEWESNGQPENNYKTTPPVLDSDGSFFLYSKLTVDKSRWQQGNVFSCSVLHEALHSHYTQKSLSLSPGK
light 2: not shown
notes: dual cell, E/R, LS
B7: p40TL1A-0001 (bispecific antibody)
heavy 1: B6 heavy 1 with D223R, P230R
light 1: not shown
heavy 2: B6 heavy 2 with D228E, P235E
light 2: not shown
notes: dual cell, EEE/RRR, LS
B8: p40TL1A-0018 (bispecific antibody, human IgG1, kappa)
heavy 1: B6 heavy 1 with T368W, R411K
light 1: not shown
heavy 2: B6 heavy 2 with T373S, E375A, Y414V
light 2: not shown
notes: dual cell, KiH without Cys in CH3, LS
B9: p40TL1A-0021 (bispecific antibody)
heavy 1: B6 heavy 1 with D223R
light 1: not shown
heavy 2: B6 heavy 2 with D228E
light 2: not shown
notes: dual cell, EE/RR, LS
B10: p40TL1A-0032 (bispecific antibody)
heavy 1: B6 heavy 1 with L130K, V187S, Y351C, T368W, R411K
light 1: DIQMTQSPSSLSASVGDRVTITCRASQGISSWLAWYQQKPEKAPKSLIYAASSLQSGVPSRFSGSGSGTDFTLTISSLQPEDFATYYCQQYNIYPYTFGQGTKLEIKRTVAAPSVFIFPPSDEQLKSGTASVSCLLNNFYPREAKVQWKVDNALQSGNSQESVTEQDSKDSTYSLDSTLTLSKADYEKHKVYACEVTHQGLSSPVTKSFNRGEC
heavy 2: B6 heavy 2 with L135E, S190G, S361C, T373S, E375A, Y414V
light 2: not shown
notes: single cell, KiH, S1-S1rev, LS
B11: p40TL1A-0033 (bispecific antibody, human IgG1, kappa)
heavy: B6 heavy 1 with Y351C, T368W, R411K
light: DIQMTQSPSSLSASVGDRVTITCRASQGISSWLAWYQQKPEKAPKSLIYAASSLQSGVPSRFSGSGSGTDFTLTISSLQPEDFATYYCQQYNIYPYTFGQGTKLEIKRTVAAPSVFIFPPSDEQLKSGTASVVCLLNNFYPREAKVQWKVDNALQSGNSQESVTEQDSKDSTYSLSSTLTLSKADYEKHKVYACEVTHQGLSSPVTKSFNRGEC
chain 1: not shown
chain 2: QVQLVQSGAEVKKPGASVKVSCKASGYDYTYYGISWVRQAPGQGLEWMGWISTYNTGTHYAPSLQGRVTMTTDTSTSTAYMELRSLRSDDTAVYYCARESYYGSGAFRGGMDVWGQGTTVTVSSASTKGPSVFPLAPSSKSTSGGTAALGCLVKDYFPEPVTVSWNSGALTSGVHTFPAVLQSSGLYSLSSVVTVPSSSLGTQTYICNVNHKPSNTKVDKKVEPKSC
notes: single cell, KiH, modified Fd, LS

What was measured:
[1] = target: T1, recombinant human TL1A (human, UniProt O95150 71-251); experiment: competition ELISA vs bio-TL1A-0002
T1 construct: homotrimer; biotinylated for SPR capture; the ELISA paragraphs say only 'recombinant TL1A'; also called TNFSF15
T1 chain: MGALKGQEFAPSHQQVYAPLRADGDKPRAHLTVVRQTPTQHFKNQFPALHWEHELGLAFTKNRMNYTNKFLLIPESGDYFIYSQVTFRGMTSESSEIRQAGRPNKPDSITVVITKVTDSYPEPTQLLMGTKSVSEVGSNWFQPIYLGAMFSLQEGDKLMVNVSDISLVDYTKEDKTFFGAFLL
Experimental: For this competition ELISA assay procedure, 96-well high binding plates (Corning, product number 3590) were coated with 1 μg/mL recombinant TL1A in 100 μL/well in Phospate Buffered Saline (PBS) overnight at 4° C. Plates were then blocked in PBS+0.02% casein solution and washed with PBS+0.05% Tween-20 following standard ELISA protocol. […] Plates were washed with PBS+0.05% Tween-20 following standard ELISA protocol, and Streptavidin-HRP (Southern Biotech, product number 7100-05) diluted to 1:10,000 in assay buffer was added to plates and incubated for 25-30 minutes at room temperature. Next, the plates were washed with PBS+0.05% Tween-20 following standard ELISA protocol, and then TMB substrate (BioFX Laboratories, catalog number TMBW-0100-01) was added to plates. Reactions were stopped after approximately 5 minutes by adding 0.18 M ortho-phosphoric acid to each well and absorbance was read at 450 nm.

[2] = target: T2, human IL-23 (human, UniProt P29460 23-328; Q9NPF7 20-189); experiment: SPR, bispecific held on captured biotinylated human TL1A, then human IL-23 injected (simultaneous binding)
T2 construct: Heterodimer p40/p19; Whole entries as named; also called IL-23 Human; recombinant human IL-23
T2 sequence 1: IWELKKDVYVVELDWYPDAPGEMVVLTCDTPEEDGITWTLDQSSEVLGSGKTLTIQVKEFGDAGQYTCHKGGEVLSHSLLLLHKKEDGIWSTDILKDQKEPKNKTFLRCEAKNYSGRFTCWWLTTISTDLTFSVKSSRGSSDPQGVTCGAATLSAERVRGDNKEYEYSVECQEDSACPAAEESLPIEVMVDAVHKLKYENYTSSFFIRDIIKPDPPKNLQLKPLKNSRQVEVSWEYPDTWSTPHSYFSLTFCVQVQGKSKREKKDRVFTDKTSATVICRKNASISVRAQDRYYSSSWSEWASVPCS
T2 sequence 2: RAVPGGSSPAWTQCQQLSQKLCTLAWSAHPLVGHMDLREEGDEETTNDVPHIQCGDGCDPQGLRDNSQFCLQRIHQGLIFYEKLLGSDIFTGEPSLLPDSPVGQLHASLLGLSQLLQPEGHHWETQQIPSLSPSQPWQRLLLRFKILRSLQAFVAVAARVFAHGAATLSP
Experimental: SPR was used to determine if the bispecific variants could simultaneously bind TL1A and IL-23, containing the p40 domain. For this analysis, a semi-quantitative SPR method was developed using Biacore™ T200 (GE Healthcare) instrumentation. […] The bispecific was injected for 90 seconds at a concentration of 20 μg/m L, a flow rate of 50 μL/minute, and captured to a level of approximately 40-150 RU. Next, recombinant human IL-23 was injected for 60 seconds and a flow rate of 50 μL/minute at a concentration range of 0.37-15 nM.

[3] = target: T2, human IL-23; experiment: SPR 37 C, bispecific captured by anti-human Fc, human IL-23 injected
Experimental: (§1) SPR was utilized to determine if the affinity constants of each arm of the bispecific variants binding human IL-23, containing the p40 subunit, and human TL1A were the same for each bispecific approach. For the analysis of the p40 binding arm, kinetic assays were conducted at 37° C. using a collection rate of 10 Hz on a Biacore™ 8 K+ instrument (GE Healthcare). An anti-human IgG antibody (anti-human Fc, GE Healthcare, 22-0648-88) was amine coupled to all four flow cells of a carboxymethylated dextran coated sensor chip (GE Healthcare,) using the manufacturer's recommended protocol. […] For the analysis of the TL1A binding arm, kinetic assays were conducted at 37° C. using a collection rate of 10 Hz on a Biacore™ T200 instrument (GE Healthcare).

[4] = target: T3, recombinant human TL1A (human, UniProt O95150 71-251); experiment: SPR 37 C, biotinylated human TL1A captured, bispecific injected
T3 construct: Homotrimeric cytokine; biotinylated with Sulfo-NHS-biotin where captured for SPR, coated unlabelled in ELISA, soluble in bioassays; also called TNFSF15
T3 chain: T1 chain
Experimental: as §1

| Binder | Bioactivity relative to TL1A-0002 [1] [fold] | IC50 [1] [nM] | Kd [2] [nM] | koff [2] [s⁻¹] | kon [2] [M⁻¹ s⁻¹] | Kd [3] [nM] | koff [3] [s⁻¹] | kon [3] [M⁻¹ s⁻¹] | Kd [4] [nM] | koff [4] [s⁻¹] | kon [4] [M⁻¹ s⁻¹] |
| --- | --- | --- | --- | --- | --- | --- | --- | --- | --- | --- | --- |
| B1 | 1.1 | 4.9 | – | – | – | – | – | – | – | – | – |
| B2 | 0.8 | 3.5 | – | – | – | – | – | – | – | – | – |
| B3 | 1.2 | 5.3 | – | – | – | – | – | – | – | – | – |
| B4 | 1 | 4.4 | – | – | – | – | – | – | – | – | – |
| B5 | 1 | 4.5 | – | – | – | – | – | – | – | – | – |
| B6 | – | – | 0.107 | 0.000571 | 5.32e+06 | 0.9 | 0.00157 | 1.75e+06 | 0.273 | 5.99e-05 | 219000 |
| B7 | – | – | 0.09 | 0.000584 | 5.98e+06 | 0.901 | 0.00156 | 1.73e+06 | 0.167 | 4.28e-05 | 256000 |
| B8 | – | – | 0.0944 | 0.000521 | 5.51e+06 | 0.659 | 0.00121 | 1.83e+06 | 0.217 | 4.87e-05 | 224000 |
| B9 | – | – | 0.0738 | 0.000524 | 7.11e+06 | 0.859 | 0.00152 | 1.77e+06 | 0.183 | 5.6e-05 | 307000 |
| B10 | – | – | 0.0788 | 0.000546 | 6.93e+06 | 0.567 | 0.00109 | 1.92e+06 | 0.254 | 6.15e-05 | 243000 |
| B11 | – | – | 0.0791 | 0.000519 | 6.56e+06 | 0.557 | 0.00115 | 2.07e+06 | 0.253 | 5.52e-05 | 218000 |
